# Values joined by “and” are separate entries in the source; they are usually repeats but may differ in a detail not shown here. Equal values may be shown once.
# Key:
# SEC = biological target: the molecule itself; assay: SEC
# SAXS = biological target: the molecule itself; assay: SAXS
protein,measurement,setting,value
Mu8.1 (natural protein) GENSDNLTHCRLFEFRLCLLECMSLTLDHCYARCTTVITQIHGSDTNRFDCTIFKTCYYRCYVLGKTEDHCWKGTATSVTGDVGDLEFC,stoichiometry N,SEC,2
same,stoichiometry N,SAXS,4 and 6

# Source: doi:10.1101/2022.07.04.498665 (bioRxiv, 2022)
